In patent US20260078185A1 (published 2026):
Where two headings read alike, the source gives them in different places.

T1: mouse VISTA recombinant protein (Sino Biological Inc., Cat. #51550-M08H), biotinylated (mouse, UniProt Q9D659 33-191, biotinylated using EZ-LINK NHS-PEG4 biotin)
T1 chain: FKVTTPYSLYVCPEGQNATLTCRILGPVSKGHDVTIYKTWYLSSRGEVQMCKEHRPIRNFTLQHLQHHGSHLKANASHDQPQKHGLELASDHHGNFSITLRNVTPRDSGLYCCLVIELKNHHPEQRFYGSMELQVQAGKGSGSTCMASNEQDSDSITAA


Tests used:
[1] = molecular target: T2, Human VISTA recombinant protein (Sino Biological Inc., Cat. #13482-H08H), biotinylated (UniProt Q9H7M9 33-194, biotinylated using EZ-LINK NHS-PEG4 biotin); assay: Octet BLI
[2] = molecular target: T1, mouse VISTA recombinant protein (Sino …); assay: Octet (BLI)
[3] = molecular target: T2, Human VISTA recombinant protein (Sino …); assay: Octet BLI; remark: listed apart in the source
[4] = molecular target: T2, Human VISTA recombinant protein (Sino …); assay: Octet BLI; remark: listed apart in the source
[5] = molecular target: T1, mouse VISTA recombinant protein (Sino …); assay: Octet (BLI)

T2 sequence (Q9H7M9 33-194): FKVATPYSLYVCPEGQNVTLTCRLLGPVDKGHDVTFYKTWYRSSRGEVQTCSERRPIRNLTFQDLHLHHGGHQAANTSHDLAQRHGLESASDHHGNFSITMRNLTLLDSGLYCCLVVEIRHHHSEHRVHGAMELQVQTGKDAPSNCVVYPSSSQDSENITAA

| Kd [1] [nM] | Kd [2] [nM] | Kd [3] [nM] | Kd [4] [nM] | Kd [5] [nM] | Binder |
| --- | --- | --- | --- | --- | --- |
| 24.4 | 20.8 |  |  |  | 9F9 humanized anti-VISTA antibody VH15/VL15 (antibody, V domains shown) VH: QVQLVQSGAEVMKPGASVKLSCKASGYTFTGYWMQWVKQRPGQGLEWIGAIYPGDGDTRYSQKFKGKATMTADTSISTAYMELSRLRSDDSAVYYCARRDYGAWFAYWGAGTTVTVSS VL: DIVMTQSPSSLSASVGERVTITCKASQDINSYLSWFQQKPGKAPKTLIYRANRLVDGVPSRFSGSGSGTDFTFTISSVQPEDLAIYYCLQYDEFPYTFGGGTKLEIK |
| 20.3 | 17.5 |  |  |  | 9F9 humanized anti-VISTA antibody VH14/VL15 (antibody, V domains shown) VH: QVQLVQSGAEVMKPGASVKISCKASGYTFTGYWMQWVRQRPGQGLEWIGAIYPGDGDTRYSQKFKGKATMTADTSISTAYMELSRLRSDDTAVYYCARRDYGAWFAYWGAGTTVTVSS VL: DIVMTQSPSSLSASVGERVTITCKASQDINSYLSWFQQKPGKAPKTLIYRANRLVDGVPSRFSGSGSGTDFTFTISSVQPEDLAIYYCLQYDEFPYTFGGGTKLEIK |
|  |  | 3.54 |  |  | 20E4-VH1/VL1 (antibody, V domains shown) VH: QVQLVQSGAEVKKPGASVKVSCKASGYTFSSSWVEWVRQAPGQGLEWMGEIFPGSGSTHYNEKFKGRVTMTRDTSISTAYMELSRLRSDDTAVYYCARRPPGWFFDVWGQGTTVTVSS VL: DIQMTQSPSSLSASVGDRVTITCKASQDVSTDVAWYQQKPGKAPKLLIYSASYRYTGVPSRFSGSGSGTDFTLTISSLQPEDFATYYCQQHYSTPWTFGGGTKVEIK |
|  |  | 6.22 |  |  | 20E4-VH4/VL4 (antibody, V domains shown) VH: QVQLVQSGAEVKKPGASVKVSCKASGYTFTSSWVEWVRQAPGQGLEWMGEIFPGSGSTHYNEKFKGRVTMTRDTSTSTVYMELSSLRSEDTAVYYCARRPPGWFFDVWGQGTMVTVSS VL: DIVMTQSPDSLAVSLGERATINCKASQDVSTDVAWYQQKPGQPPKLLIYSASYRYTGVPDRFSGSGSGTDFTLTISSLQAEDVAVYYCQQHYSTPWTFGGGTKVEIK |
|  |  | 3.09 |  |  | 20E4-VH3/VL3 (antibody, V domains shown) VH: QVQLVQSGAEVMKPGASVKISCKATGYTFSSSWVEWVRQRPGQGLEWIGEIFPGSGSTHYNEKFKGKATMTADTSISTAYMELSRLRSDDTAVYYCARRPPGWFFDVWGAGTTVTVSS VL: DIVMTQSPSSLSASVGDRVTITCKASQDVSTDVAWYQQKPGKAPKLLIYSASYRYTGVPSRFSGSGSGTDFTFTISSVQPEDLAVYYCQQHYSTPWTFGGGTKLEIK |
|  |  | 4.37 |  |  | 20E4 parental anti-VISTA antibody (VH0/VL0) (antibody, V domains shown) VH: QVQLQQSGAELMKPGASVKISCKATGYTFSSSWVEWVRQRPGHGLEWIGEIFPGSGSTHYNEKFKGKATFTADTSSNTAYLQLSSLTSDDSAVYYCARRPPGWFFDVWGAGTTVTVSS VL: DIVMTQSHKFMSTSVGDRVSITCKASQDVSTDVAWYQQKPGQSPKLLIYSASYRYTGVPDRFTGSGSGTDFTFTISSVQAEDLAVYYCQQHYSTPWTFGGGTKLEIK |
| 26.6 | 23.9 |  | 37.7 | 607 | 9F9 humanized anti-VISTA antibody VH9/VL9 (antibody, V domains shown) VH: QVQFVQSGAEVKKPGSSVKVSCKASGYTFSGYWMQWVKQAPGQGLEWIGAIYPGDGDTRYSQKFKGKVTLTADESTSTAYMELSSLRSEDTAVYYCARRDYGAWFAYWGQGTLVTVSS VL: DIKVTQSPSSLSASVGDRVTITCKASQDINSYLSWYQQKPGKAPKTLIYRANRLVDGVPSRFSGSGSGQDYTFTISSLQPEDIATYYCLQYDEFPYTFGQGTKVEIK |
|  |  |  | 56.7 | 866 | 9F9 humanized anti-VISTA antibody VH7/VL7 (antibody, V domains shown) VH: QVQFVQSGAEVKKPGASVKVSCKASGYTFTGYWMQWVKQAPGQRLEWIGAIYPGDGDTRYSQKFKGKVTLTADTSASTAYMELSSLRSEDTAVYYCARRDYGAWFAYWGQGTLVTVSS VL: DIKVTQSPSSLSASVGDRVTITCKASQDINSYLSWYQQKPGKAPKTLIYRANRLVDGVPSRFSGSGSGQEYTLTISSLQPEDFATYYCLQYDEFPYTFGQGTKVEIK |
|  |  |  | 36.6 | 336 | 9F9-VH8/VL8 (antibody, V domains shown) VH: QVQFVQSGAEVKKPGASVKVSCKASGYTFTGYWMQWVKQAPGQGLEWIGAIYPGDGDTRYSQKFKGKVTLTADKSTSTAYMELSSLRSEDTAVYYCARRDYGAWFAYWGQGTLVTVSS VL: DIKVTQSPSSLSASVGDRVTITCKASQDINSYLSWYQQKPEKAPKTLIYRANRLVDGVPSRFSGSGSGTDFTLTISSLQPEDFATYYCLQYDEFPYTFGQGTKVEIK |
| 9.45 | 12.2 |  | 8.65 | 5.03 | 9F9 parental anti-VISTA antibody (VH0/VL0) (antibody, V domains shown) VH: QVQFQQSGAELARPGASVKLSCKASGYTFTGYWMQWVKQRPGQGLEWIGAIYPGDGDTRYSQKFKGKVTLTADKSSSTAYMQLSSLASEDSAVYYCARRDYGAWFAYWGQGTLVTVSA VL: DIKVTQSPSSMYASLGERVTITCKASQDINSYLSWFQQKPGKSPKTLIYRANRLVDGVPSRFSGSGSGQDYSLTISSLDYEDMGIYYCLQYDEFPYTFGGGTKLEIK |
